Laboratory results taken from patent US8889631B2, “Disruptors of early/recycling endosomes” (The University of Kansas, priority 2008, dated 2014).
Square brackets hold non-standard residues; d marks the D form. Peptide text beside a SMILES is read from it. * marks the point of attachment. Pentanoyl(5-NH-cholesteryl) = CC(C)CCC[C@@H](C)[C@H]1CC[C@H]2[C@@H]3CC=C4C[C@@H](NCCCCC(=O)*)CC[C@]4(C)[C@H]3CC[C@]12C; Ahx = NCCCCCC(=O)O

How the values were obtained:
CHO cells = test: Cytotoxicity assay (CellTiter-Glo), CHO cells; format: cell-based, Chinese hamster; settings: 8 μM, 48 h at 37° C.
Description: Trypsinized CHO cells (2×10^3) in media (100 μL) were loaded on a 96-well plate. After incubation for 36 h, the media was replaced with fresh media (100 μL) containing increasing concentrations of Compound 1 in DMSO (final [DMSO]=1%). After 48 h of incubation, the cells in each well were washed with PBS (2×100 μL) and detached by treatment with a solution of trypsin (50 μL, 5 min). The cell suspension (10 μL) was transferred to an opaque 96-well plate containing PBS (170 μL per well) and treated with CellTiter-Glo reagent (20 μL, Promega) according to the Promega protocol provided with the reagent. After incubation at ambient temperature (22° C.) for 10 min, the luminescence of the samples was measured with a Packard Fusion microplate reader.

Jurkat lymphocytes [1] = test: Cytotoxicity assay (CellTiter-Glo), Jurkat cells; format: cell-based, human; settings: 2 μM, 48 h at 37° C.
Description: Jurkat lymphocytes (7×10^4) in media (100 μL) were loaded on a 96-well plate. To these cells were added increasing concentrations of Compound 1 in DMSO (final [DMSO]=1%). After incubation for 48 h, cells from each well (10 μL) were transferred to an opaque 96-well plate containing PBS (170 μL per well) and treated with CellTiter-Glo reagent (20 μL, Promega) according to the Promega protocol provided with the reagent. After incubation at ambient temperature (22° C.) for 10 min, the luminescence of the samples was measured with a Packard Fusion microplate reader.

Jurkat lymphocytes [2] = test: Toxicity of colchicine-cholesterylamine Compound 30 with or without Compound 1, DIC micrographs; format: cell-based, human; settings: 2 μM; 48 h
Description: FIGS. 11B-11E show DIC micrographs of Jurkat lymphocytes treated for 48 h with DMSO (FIG. 11B), Compound 1 (FIG. 11C), Compound 30 (FIG. 11D, and Compounds 1 and 30 (FIG. 11E).
The delivery system was studied with the anticancer agent colchicine being linked to the N-alkyl-3β-cholesterylamine via a disulfide, which compound is Compound 30 as shown in FIG. 11A. The delivery system utilized Compound 1 to release the anticancer agent colchicine from Compound 30. Colchicine was linked to an N-alkyl-3β-cholesterylamine via a disulfide linker to present a compound that is non-toxic to Jurkat lymphocytes at 200 nM. The cholesterylamine-PC4 peptide (Compound 1) is similarly non-toxic at 2 μM. However, the combination of these two compounds (Compound 1+Compound 30) is lethal to lymphocytes because Compound 1 enables release of the toxic colchicine derivative (FIGS. 11B-11E). […] It is thought that tumor-specific proteases capable of cleaving a peptide bond linking N-alkyl-3β-cholesterylamines to doxorubicin or other cancer agent will similarly enable the specific delivery of drugs to cognate cancer cells. Also, a cell type specific protease can be used for controlling delivery of the agent into the cytosol of those cell types.

CC(C)CCC[C@@H](C)[C@H]1CC[C@H]2[C@@H]3CC=C4C[C@@H](NCCCCC(=O)N[C@@H](CCC(=O)O)C(=O)N[C@@H](CCC(=O)O)C(=O)NCCCCCC(=O)NCCCCCC(=O)N[C@@H](CO)C(=O)N[C@@H](CO)C(=O)N[C@@H](C)C(=O)N[C@@H](Cc5c[nH]c6ccccc56)C(=O)N[C@@H](Cc5c[nH]c6ccccc56)C(=O)N[C@@H](CO)C(=O)N[C@@H](Cc5ccc(O)cc5)C(=O)N[C@@H](Cc5c[nH]c6ccccc56)C(=O)N5CCC[C@H]5C(=O)N5CCC[C@H]5C(=O)N[C@H](C(=O)N[C@@H](C)C(N)=O)C(C)C)CC[C@]4(C)[C@H]3CC[C@]12C [Compound 1, N-[6-({6-[(N-{5-(3β-Cholest-5-en-3-ylammonio)pentanoyl}-5-oxidanidyl-5-oxidanylidene-L-norvalyl-5-oxidanidyl-5-oxidanylidene-L-norvalyl)amino]hexanoyl}amino)hexanoyl]-L-seryl-L-seryl-L-alanyl-L-tryptophyl-L-tryptophyl-L-seryl-L-tyrosyl-L-tryptophyl-L-prolyl-L-prolyl-L-valyl-L-alaninamide] ({Pentanoyl(5-NH-cholesteryl)}-EE[Ahx][Ahx]SSAWWSYWPPVA-NH2)
non-toxic: toxicity (cellular viability) (CHO cells) | toxicity (cellular viability) (Jurkat lymphocytes [1]) | toxicity to Jurkat lymphocytes (Jurkat lymphocytes [2])
